For data set [1], the system named is CC(C)=CCC/C(C)=C/CC/C(C)=C/CC/C(C)=C/C=C\C=C(/C)CC/C=C(\C)CC/C=C(\C)CCC=C(C)C. Description: purified protein. Conditions: 150 µM FAD, phytoene 0.8-9.2 µM (apparent bulk concentration) in phosphatidyl-choline liposomes, aerobic, phosphate pH 8.0, 100 mM NaCl, 37 °C, 12 min, not saturated.
In data set [2] the test system is Cc1cc2nc3c(=O)[nH]c(=O)nc-3n(C[C@H](O)[C@H](O)[C@H](O)COP(=O)(O)OP(=O)(O)OC[C@H]3O[C@@H](n4cnc5c(N)ncnc54)[C@H](O)[C@@H]3O)c2cc1C. Briefly: purified protein. To be noted: phytoene 7 µM (7.5 µM in Figure 4 legend) in phosphatidyl-choline liposomes, aerobic, phosphate pH 8.0, 100 mM NaCl, 37 °C, 12 min, varied: cofactor.

The Km is the concentration of substrate that gives half-maximal velocity.

Take CRTI (CRTI-His6) (Pantoea ananatis): the Michaelis constant (Km) was 16.7 ± 1.9 µM in data set [1] and 50.5 ± 2.9 µM in data set [2].

The record behind these values is publication PMC3382138, “On the Structure and Function of the Phytoene Desaturase CRTI from Pantoea ananatis, a Membrane-Peripheral and FAD-Dependent Oxidase/Isomerase” (PLoS ONE, 2012).
